For one substance, stoichiometry N results are on record in article doi:10.1101/2023.12.01.569544.

For orientation: stoichiometry N means a count of units in the complex or per binding partner.

For the experiment, the target named is HIV-1 capsid A14C/E45C/W184A/M185A (HIV-CA) (HIV-1). In words: SEC. On the technique in general: Size exclusion chromatography separates by hydrodynamic size, large species first.

Consider “HIV-1 capsid A14C/E45C/W184A/M185A (HIV-CA) (natural protein)”, for which the stoichiometry N was 6.
